Assay: label from the status in PepcDB records

Sequence	protein production
MATNSSTEQSLTKKVWNLATTLAGQGIGFTDYITQLTYLLFLKMDAENVEMFGEESAIPTGYQWADLIAFDGLDLVKQYEETLKLLSELDNLIGTIYTKAQNKIDKPVYLKKVITMIDEEQWLIMDGDVKGAIYESILEKNGQDKKSGAGQYFTPRPLIQAMVDCINPQMGETVCDPACGTGGFLLTAYDYMKGQSASKEKRDFLRDKALHGVDNTPLVVTLASMNLYLHGIGTDRSPIVCEDSLEKEPSTLVDVILANPPFGTRPAGSVDINRPDFYVETKNNQLNFLQHMMLMLKTGGRAAVVLPDNVLFEAGAGETIRKRLLQDFNLHTILRLPTGIFYAQGVKANVLFFSKGQPTKEIWFYDYRTDIKHTLATNKLERHHLDDFVSCYNNRVEIYDAENNPQGRWRKYPVDEIIARDKTSLDITWIKPGGEVDDRSLAEL	not failed
MAMVFCRGCAKEIHETALNCPQCGASQFPATPVKQLQENGSPWMAITSLVLGILCSLALFDDGEWDLETIVGLGMCSVAGLALGIVSINKKMPGYGIAIAGTVLSAVSLLVFFGLIVN	failed
MEYKLTPSYLLKENMVLACGNILFADDGFSVHVIEKLQELLTEEEKENIALVDAGAGAPQQVLTLIDSEAKTKKIIVVDIIDYGLEPGEIKILTMDDLPKPEHTKVDSHDWPLSTTMYRVFRDAPHEIDFKVVGCQKKYVSEPDVVIELSEEVQNAVDVAVDIVLSELRGKPIN	not failed
MNIGNITISVIIPVYNASVTLPHCLESLHKQTYRNLELLFVDDCSTDESLYILTSYAEQFAEIDFTIRILQHERNRGVAAARNTALKCATGDYIYYVDADDSIEPHTLECLVNEINHKGLDIVGHEWYLTFNSNARYMKQPAYTTSVEALRKMMGGVMRWNLWLFLVRRSLYVENDIRFTEGLNMGEDMMVMMKLFICAGKVGIVHRPFYHYRQSNPESLTKIYSQEHIIQVANNVYEVEKYVNASAYADSLIEFIPFLKLNIKLPLLITDDKSHYEQWLECFPEANCYVMNNKLLPLRTRIIQWMAVKRYFILLRLYYRTVFKLVYGIIYKLEHHHHHH	failed
MTLKPTQQRLLLMLGWLHLQCGQPRRAQVLLEALLSVAPERRDGRRALLLALLQQGLGEPAVRLCRQLQEDGEEEPGLWRCLSRAEQLAGRLDAARAAHARALELEARELEHHHHHH	not failed
QIPAERDREPSKLKRSYSSPDITQAIQEEEKRKPTVTPTVNRENKPTCYPKAEISRLSASQIRNLNPVFGGSGPALTGLRNLGNTCYMNSILQCLCNAPHLADYFNRNCYQDDINRSNLLGHKGEVAEEFGIIMKALWTGQYRYISPKDFKITIGKINDQFAGYSQQDSQELLLFLMDGLHEDLNKADN	failed
MSANMHIFENPSALAEALADDVGARLAAAIAARGTASLAVSGGSTPKAFFRSLSRRELDWSKVTVTLVDERFVPPENDRSNHRLVADNLLKDGAAEARFVPLYQAAETAEAAAAIASGRTASLGAPLDVVVLGMGTDGHTASFFPGGTRLEEALDPTTPRGVITMEAEGAGEPRLTFTFSSLQDAGYLVLHIEGSGKKEVLAQAEASGDEAEMPIRAMLRRAASPLQIYWAP	failed
MDYFRLAEKFLREMHAKYMKRVSRPGNTPRPWFDFSEERLLSRLFEEMDELREAVEKEDWENLRDELLDVANFCMYLWGKLSVKNIYDKGEEQ	not failed
MRLQELVLVKISLVFLWLIGFVFLQRSEENGFEEPNNGEELSWDDLEREAASNISSKRSHAERSHQHESFTKGDELSGDLYELWRQEQNSIAARLDKELKSRWELDELIEEQLSRYQSHYDNSMVSTFLKDVSNLVLPTWIPPHELAAVAWLGDWRPTSILDLVRILAAQNPSFSLSESSLRVLSQLLREIRIEEAVIDEEYAEIQATGVLYLPFSPLCNTRLHEEALRSVQELFGNIHKVISKAQRLRYKVLELVMKKLLNQTDTAEFVVAFAGIQDAIHQFGEQKKLRKIYPAVPSPLKGSGSSS	not failed
MDFSQLGGLLDGMKKEFSQLEEKNKDTIHTSKSGGGMVSVSFNGLGELVDLQIDDSLLEDKEAMQIYLMSALNDGYKAVEENRKNLAFNMLGNFAKL	not failed
MLMEIRESVKERIEEIIKEIAPQWEGEIELKETPDPKLGDFGTPIAFKLAKLLKRPPIEIAEKIVEKLKLNLPEGIKDVKAVNGYINVFIDYPHFARILINDILAKGDRFGSSEIGKGKKVIVEHTSVNPTKPLHMGHARNAILGDVMARILRFLGYEVEVQNYIDDLGIQFAQVYWGYLRLKEEFERIMNELRERGLKDNPIDHALGLLYVEVNRRLEDNPELENEIRDIMKKLESGELYGRKLAEEVVRAQMVTTYKLGVKYDLLVWESDIVRRKLFEIALELLSKNENFYIPSDGKYRGAFVMDLRKLFPDMKNPILVLRRSDGTATYTGKDIAYHLWKFGKIDVDLLYKEWDSTTWTTAPDGKSMPNKFGNANIVINVIGAEQKHPQLAIKYALQLLGFEDAAANLYHLAYEHVERPEGKFSGRKGTWVGFTVDEVIQEAVKRARELIEEKNPALSDEEKAEVAEKVGIGAIRYNLIKYSPDKKIIFRWEDVLNFEGESAPYIQYAHARCSSILRKAEEEGIKVDPETLFKNADFTKLSERERELVIMLSKFPRIVEQAGKDVKPHLIAWFANELASLFNKFYMDHPVLKAEEGVREARLLLVMAVEQVLKNALYLMGIEAPERM	not failed
MTLLQQIMWGSLYLGLCFVVEVLLLVWCTLVIVHLSIRLRHLSRAMRTAAVISVSLAFIVLAHTLQVWLWAGVWIWSDVLTDWNEALYFSLVTYTTLGYGDIVLGPGLRIFAAFAAVAGLLAFGLSTAYLVALMSRVFEGRLPR	failed
MTRLFSRPYPLGATLNKEGCNFSIHAPGVKDIQLALFASDGSYSLHDLPNEYAGIRHTFIPDIKPGQKYGYVVTRRDEPLLISDPYAKSLDKALHYHPPYTPAKSFDMPKCVVIE	failed
TTAKPQQIQALMDEVTKQGNIVRELKAQKADKNEVAAEVAKLLDLKKQLAVAEGKPPEAPKGKKKK	not failed
MKLVICIVQDDDAGELIDVLTDKGLRVTKLATTGGFLKAGNTTLMIGVEEKAVDGVIETIEDVCKTRQQVVTSPSPVAGSTGVYVPYPIDVEVGGATIFVVDVDKFIKI	failed
MNRPGVLTSPGSIPLRPRRRDPSGPASARARVEARQRVGKILVVAGWIVSLAGVAIYCVTSFAAGADADLAAILIDGAIPAARAGLAVVGVGTLTWVVGSILHLNASLDAADAERDGPAEG	failed
MRGVSELEVGKSNLPAESELELGLGLSLGGGAWKERGRILTAKDFPSVGSKRSAESSSHQGASPPRSSQVVGWPPIGLHRMNSLVNNQAMKAARAEEGDGEKKVVKNDELKDVSMKVNPKVQGLGFVKVNMDGVGIGRKVDMRAHSSYENLAQTLEEMFFGMTGTTCREKVKPLRLLDGSSDFVLTYEDKEGDWMLVGDVPWRMFINSVKRLRIMGTSEASGLAPRRQEQKDRQRNNPV	failed
MEPSCTQNGMKPKLKISDLSRSLGPGIMMAAAAVGGSHLVASTKAGAIYGWEMLLLILAVNLLKYPFFRAGVQYTLGTGDSIIQGYHKLGRGYLWVFLVLSAISAVVNTAALLLFSASLLGYFLPFDLSLNVLSSIVLITCITILFAGHFKALDKLSKLIMATLTIATTIALGVAFSNGAVAPTDYQGPSVWSIASIGFLVITMGWMPAPIEISSITSMWLKRQCQTQKVTPQSALFDFNVGYIGTAILAVVFLSLGALVLYGSGIEFKASGIGFSHQLVGIYAATIGEWSRYLIAVIAFFCIFGSTITVIDGYSRAVSEAQLLLQRKPLNQPKHYNSWVMIVSVLAITIVTLFISSLMSMLDFAMIMAFITTPIFAALNYILVTKTELPDELRMGAKLKALSIVGLIYLFGFLAIFVWWKWLM	failed
MARRNRGVTRRERPNLLITGTPGTGKSTTASALAEATNLRYICIGDLVKEKEFYHGWDNELECHFINEDSVIDELDDAMIEGGNIVDYHGCDFFPQRWFDRVVVLRTENSVLYDRLTNSKVLIVFSQPTKAGVIQEPSLVTTFNAKCIKSYSKKHMTVMMRKLSLNYKGEAMLAKTVFPRGLLVLRSFSSVASKTLLKVGDVLRETRVFSSEDIKAYAEVSHDWNPLHFDPESARKAGFENRLVHGMLVSSMFPRIISAHFPGAVYVSQSLHFRSPVYIGDEILGLVQAIALRETKNKYIVKFSTKCFKNHNELVVIDGEATAILPNLDMLQKSPSE	failed
MPKIIEAIYENGVFKPLQKVDLKEGERIKLRIEEGILDVIKKYQGKFKLTEKDIEKFLEERRLEHHHHHH	not failed

From a protein production outcome set (Wang et al. 2014)
